# Reference: patent US20220242939A1 (BIOARCTIC, published 2022)
# Non-standard residues stand in square brackets, D forms with d. No end group written: not given here. Ahx = NCCCCCC(=O)O
# B1: G200 N-terminal neo-epitope peptide GQPLQE-Acp-C (SEQ ID NO:50) conjugated to BSA (peptide)
# peptide: GQPLQE[Ahx]C
# modifications: not fully specified (residue 8); printed as GQPLQE-Acp-C; also: C-terminal Cys conjugated to BSA carrier
# notes: also called G200-BSA peptide; G200-peptide
# Experiments:
# [1] = biological target: 23D5, recombinant IgG2c antibody; assay: inhibition ELISA 2nd protocol: antigen in solution varied, antibody 23D5, plate coated with G200-BSA peptide
# Experimental: (§1) The pre-incubated samples were transferred (50 μl/well) to the blocked ELISA plates, and plates were incubated for 25 min at room temperature without shaking. Plates were washed as described above. Alkaline phosphatase conjugated anti-mouse IgG detection antibody (Mabtech, cat. no. 3310-4) was diluted 1:1000 and added to each plate (50 μl/well). The plate was sealed and incubated with shaking (900 rpm) for 45 min at room temperature and subsequently washed as described above. Alkaline phosphatase substrate (50 μl/well) was added to the plate and the optical density was read every 15 min at a wavelength of 405 nm for up to 120 min. The IC50 values were determined from a log inhibitor concentration response curve (FIG. 17).
# (§2) In addition, a second inhibition ELISA with the ApoE peptides conjugated to BSA was run, in which the starting concentration of the antigens in solution was increased 10-fold. i.e. the starting concentration of the N-terminal neo-epitope of synthetic ApoE peptides conjugated to BSA and starting at amino acid L198 (SEQ ID NO:52), A199 (SEQ ID NO:51) or G200 (SEQ ID NO:50), or to BSA-conjugated negative control peptide (SEQ ID NO:53), was 10000 ng/ml. […] IC50 values were determined from a log inhibitor concentration response curve (FIG. 20).
# [2] = biological target: 28F2, recombinant IgG2c antibody; assay: inhibition ELISA: antigen in solution varied, antibody 28F2 at 0.05 µg/ml, plate coated with G200-BSA peptide
# Experimental: (§3) […] of each synthetic ApoE peptide, recombinant C-terminal ApoE fragment G200-HIS and full-length ApoE4 were prepared by 4-fold dilution starting from 1000 ng/ml in 96 well storage plates (30 μl final volume). Each recombinant antibody to be tested was added (30 μl) to the serial dilutions of each of the synthetic ApoE peptides, G200-HIS or full-length ApoE4 at a final concentration of 0.05 μg/ml per well. Samples were pre-incubated for 45 min at room temperature with shaking (900 rpm).
# as §1
# [3] = biological target: T1, 7B10, recombinant IgG2c antibody; assay: inhibition ELISA 2nd protocol: antigen in solution varied, antibody 7B10, plate coated with G200-BSA peptide
# T1 construct: also called 7610
# Experimental: as §3
# as §1, with “17). […]” for “17).”
# [4] = biological target: T1, 7B10, recombinant IgG2c antibody; assay: inhibition ELISA: antigen in solution varied, antibody 7B10 at 0.05 µg/ml, plate coated with G200-BSA peptide
# Experimental: as §1
# [5] = biological target: 23D5, recombinant IgG2c antibody; assay: inhibition ELISA: antigen in solution varied, antibody 23D5 at 0.05 µg/ml, plate coated with G200-BSA peptide
# Experimental: as §1
# [6] = biological target: 36A12, monoclonal anti-A199 antibody; assay: inhibition ELISA; antibody at 0.05 ug/ml pre-incubated with the peptide in solution (4-fold dilutions from 10000 ng/ml), then on a plate coated with A199-BSA peptide; blank reduced OD 405 nm
# Experimental: (§4) 0.5 μg/ml solution of N-terminal neo-epitope peptide A199 (SEQ ID NO:51) conjugated to BSA was prepared by dilution in PBS. 50 μl/well were added to an ELISA half-area 96 well microtiter plate, the plate was sealed with adhesive sealer and incubated over night at 4° C. After discarding the solution, the plates were blocked with protein-free blocking solution (Pierce) (150 μl/well) at room temperature for 90 min with shaking (900 rpm). The blocked plate was washed four times with washing buffer containing 0.28 mM NaH₂PO₄, 2.5 mM Na₂HPO₄, 150 mM NaCl, 0.1% TWEEN®-20 and 0.0075% Kathon CG.
# (§5) Serial dilutions of each synthetic ApoE peptide were prepared by 4-fold dilution starting from 10000 ng/ml in 96 well storage plates (30 μl final volume). Each purified monoclonal antibody to be tested was added (30 μl) to the serial dilutions of each of the synthetic ApoE peptides at a final concentration of 0.05 μg/ml per well. Samples were pre-incubated for 45 min at room temperature with shaking (900 rpm).
# as §1, with “10” for “25”, “10” for “15”, “29).” for “17).”
# [7] = biological target: 38G9, monoclonal anti-A199 antibody; assay: as above
# Experimental: as §4, §5
# as §1, with “10” for “25”, “10” for “15”, “29).” for “17).”
# [8] = biological target: 17G4, recombinant IgG2c antibody; assay: inhibition ELISA 2nd protocol: antigen in solution varied, antibody 17G4, plate coated with G200-BSA peptide
# Experimental: as §1, §2
# [9] = biological target: 7C7, recombinant IgG2c antibody; assay: inhibition ELISA: antigen in solution varied, antibody 7C7 at 0.05 µg/ml, plate coated with G200-BSA peptide
# Experimental: as §1
# [10] = biological target: 15F8, monoclonal anti-L198 antibody; assay: inhibition ELISA; antibody at 0.05 ug/ml pre-incubated with the peptide in solution (4-fold dilutions from 10000 ng/ml), then on a plate coated with L198-BSA peptide; blank reduced OD 405 nm
# Experimental: as §4, with “L198” for “A199”, “NO:52)” for “NO:51)”
# as §5, with “recombinant” for “purified monoclonal”
# as §1, with “10” for “25”, “10” for “15”, “25).” for “17).”
# [11] = biological target: 6F4, monoclonal anti-L198 antibody; assay: as above
# Experimental: as §4, with “L198” for “A199”, “NO:52)” for “NO:51)”
# as §5, with “recombinant” for “purified monoclonal”
# as §1, with “10” for “25”, “10” for “15”, “25).” for “17).”
# [12] = biological target: 28F2, recombinant IgG2c antibody; assay: inhibition ELISA 2nd protocol: antigen in solution varied, antibody 28F2, plate coated with G200-BSA peptide
# Experimental: as §3
# as §1, with “17). […]” for “17).”
# [13] = biological target: 17G4, recombinant IgG2c antibody; assay: inhibition ELISA: antigen in solution varied, antibody 17G4 at 0.05 µg/ml, plate coated with G200-BSA peptide
# Experimental: as §1
# [14] = biological target: 7C7, recombinant IgG2c antibody; assay: inhibition ELISA 2nd protocol: antigen in solution varied, antibody 7C7, plate coated with G200-BSA peptide
# Experimental: as §1, §2
# Chain of 17G4, recombinant IgG2c antibody (VH, as listed by the source, chain 1 of 2): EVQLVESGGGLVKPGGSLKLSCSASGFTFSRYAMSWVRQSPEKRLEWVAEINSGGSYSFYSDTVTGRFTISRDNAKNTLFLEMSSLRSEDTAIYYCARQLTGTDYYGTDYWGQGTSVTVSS
# Chain of 17G4, recombinant IgG2c antibody (VL, as listed by the source, chain 2 of 2): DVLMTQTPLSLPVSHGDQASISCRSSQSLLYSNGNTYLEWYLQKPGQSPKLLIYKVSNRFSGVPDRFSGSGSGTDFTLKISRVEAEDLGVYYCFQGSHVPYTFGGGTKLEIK
# Chain of 7C7, recombinant IgG2c antibody (VH, as listed by the source, chain 1 of 2): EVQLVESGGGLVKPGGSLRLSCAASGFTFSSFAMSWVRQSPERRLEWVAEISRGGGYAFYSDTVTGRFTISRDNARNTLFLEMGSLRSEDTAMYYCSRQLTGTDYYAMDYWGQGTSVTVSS
# Chain of 7C7, recombinant IgG2c antibody (VL, as listed by the source, chain 2 of 2): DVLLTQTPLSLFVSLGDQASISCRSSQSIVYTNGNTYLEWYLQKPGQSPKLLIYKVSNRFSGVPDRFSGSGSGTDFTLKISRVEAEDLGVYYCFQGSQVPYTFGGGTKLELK
# Chain of 23D5, recombinant IgG2c antibody (VH, as listed by the source, chain 1 of 2): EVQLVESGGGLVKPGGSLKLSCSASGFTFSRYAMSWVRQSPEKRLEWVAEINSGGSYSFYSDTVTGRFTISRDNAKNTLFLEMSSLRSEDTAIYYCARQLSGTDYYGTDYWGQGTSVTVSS
# Chain of 28F2, recombinant IgG2c antibody (VH, as listed by the source, chain 1 of 2): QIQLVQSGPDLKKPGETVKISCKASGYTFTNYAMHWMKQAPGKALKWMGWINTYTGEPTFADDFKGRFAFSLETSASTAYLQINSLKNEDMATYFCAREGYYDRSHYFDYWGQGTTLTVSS
# Chain of 28F2, recombinant IgG2c antibody (VL, as listed by the source, chain 2 of 2): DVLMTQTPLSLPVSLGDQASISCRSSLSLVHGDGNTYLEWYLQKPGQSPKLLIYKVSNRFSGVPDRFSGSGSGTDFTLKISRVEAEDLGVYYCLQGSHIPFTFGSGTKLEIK
# T1 sequence (VH, as listed by the source, chain 1 of 2): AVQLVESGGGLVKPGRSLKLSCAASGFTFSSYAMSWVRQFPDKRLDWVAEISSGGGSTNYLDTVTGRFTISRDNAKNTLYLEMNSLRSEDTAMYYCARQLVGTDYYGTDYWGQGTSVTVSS
# T1 sequence (VL, as listed by the source, chain 2 of 2): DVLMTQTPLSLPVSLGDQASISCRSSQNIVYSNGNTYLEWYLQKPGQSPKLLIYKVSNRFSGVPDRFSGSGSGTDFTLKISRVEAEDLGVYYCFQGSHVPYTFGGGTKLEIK
# Chain of 36A12, monoclonal anti-A199 antibody (VH, as listed by the source, chain 1 of 2): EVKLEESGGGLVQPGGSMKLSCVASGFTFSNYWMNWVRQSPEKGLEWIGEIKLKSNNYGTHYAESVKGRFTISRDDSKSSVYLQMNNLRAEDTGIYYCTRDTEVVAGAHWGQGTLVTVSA
# Chain of 36A12, monoclonal anti-A199 antibody (VL, as listed by the source, chain 2 of 2): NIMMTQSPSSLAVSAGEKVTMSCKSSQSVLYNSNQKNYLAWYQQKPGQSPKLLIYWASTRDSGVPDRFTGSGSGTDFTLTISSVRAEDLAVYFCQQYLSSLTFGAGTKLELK
# Chain of 15F8, monoclonal anti-L198 antibody (VH, as listed by the source, chain 1 of 2): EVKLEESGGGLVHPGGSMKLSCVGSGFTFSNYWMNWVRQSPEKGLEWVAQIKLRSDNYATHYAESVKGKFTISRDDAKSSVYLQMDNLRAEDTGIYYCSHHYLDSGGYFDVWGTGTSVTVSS
# Chain of 15F8, monoclonal anti-L198 antibody (VL, as listed by the source, chain 2 of 2): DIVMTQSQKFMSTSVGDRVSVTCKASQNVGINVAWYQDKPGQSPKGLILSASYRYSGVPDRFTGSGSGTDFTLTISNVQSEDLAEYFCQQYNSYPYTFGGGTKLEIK
# Chain of 6F4, monoclonal anti-L198 antibody (VH, as listed by the source, chain 1 of 2): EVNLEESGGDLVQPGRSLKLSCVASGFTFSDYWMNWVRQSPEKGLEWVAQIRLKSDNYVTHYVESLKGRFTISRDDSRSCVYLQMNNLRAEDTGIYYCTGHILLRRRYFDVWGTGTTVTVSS
# Chain of 6F4, monoclonal anti-L198 antibody (VL, as listed by the source, chain 2 of 2): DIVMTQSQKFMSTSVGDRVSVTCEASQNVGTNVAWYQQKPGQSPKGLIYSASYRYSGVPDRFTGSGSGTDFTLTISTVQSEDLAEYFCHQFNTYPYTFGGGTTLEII
# Chain of 38G9, monoclonal anti-A199 antibody (VH, as listed by the source, chain 1 of 2): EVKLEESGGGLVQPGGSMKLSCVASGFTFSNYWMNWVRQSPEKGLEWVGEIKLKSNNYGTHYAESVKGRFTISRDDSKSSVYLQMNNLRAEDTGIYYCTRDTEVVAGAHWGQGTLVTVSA
# Chain of 38G9, monoclonal anti-A199 antibody (VL, as listed by the source, chain 2 of 2): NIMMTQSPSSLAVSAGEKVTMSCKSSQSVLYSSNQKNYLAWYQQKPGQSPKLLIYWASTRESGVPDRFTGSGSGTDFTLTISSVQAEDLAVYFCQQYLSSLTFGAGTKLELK
binder,measurement,setting,value
B1,IC50,[1],3.8 ng/mL
same,IC50,[2],3.2 ng/mL
same,IC50,[3],5.8 ng/mL
same,IC50,[4],2.2 ng/mL
same,IC50,[5],2.8 ng/mL
same,binding result,[6],no binding (tested: 10000 ng/ml)
same,binding result,[7],no binding (tested: 10000 ng/ml)
same,IC50,[8],5.8 ng/mL
same,IC50,[9],3.1 ng/mL
same,binding result,[10],no binding (tested: 10000 ng/ml)
same,binding result,[11],no binding (tested: 10000 ng/ml)
same,IC50,[12],3.7 ng/mL
same,IC50,[13],2.9 ng/mL
same,IC50,[14],6.3 ng/mL
